Among the data in PMC4575112, “Serine 363 of a Hydrophobic Region of Archaeal Ribulose 1,5-Bisphosphate Carboxylase/Oxygenase from Archaeoglobus fulgidus and Thermococcus kodakaraensis Affects CO2/O2 Substrate Specificity and Oxygen Sensitivity” (PLoS ONE, 2015) are Km and kcat values, retold here.

Substitutions are numbered along the chain they refer to. Numbers in names are those of the source.

The target of data set [1] is T1, A. fulgidus RbcL2 (Archaeoglobus fulgidus, UniProt O28635).
T1 construct: gene rbcL; recombinant in E. coli BL-21(DE3) from pET11a, untagged, purified anaerobically to homogeneity; homodimer
T1 sequence (O28635 1-441): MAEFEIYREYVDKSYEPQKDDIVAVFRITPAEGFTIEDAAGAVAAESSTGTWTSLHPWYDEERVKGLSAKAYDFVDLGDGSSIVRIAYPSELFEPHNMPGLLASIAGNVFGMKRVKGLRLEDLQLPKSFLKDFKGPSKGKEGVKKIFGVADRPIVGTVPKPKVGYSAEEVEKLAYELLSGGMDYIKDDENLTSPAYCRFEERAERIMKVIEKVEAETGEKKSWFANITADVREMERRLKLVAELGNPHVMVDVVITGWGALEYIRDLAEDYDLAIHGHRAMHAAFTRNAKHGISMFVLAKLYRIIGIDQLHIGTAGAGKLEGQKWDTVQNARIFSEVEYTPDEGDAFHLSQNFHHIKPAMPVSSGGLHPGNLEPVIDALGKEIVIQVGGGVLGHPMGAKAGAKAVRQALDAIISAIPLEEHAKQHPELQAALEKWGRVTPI
The data set can be described thus: radiometric […]-bicarbonate carboxylase assay. To be noted: 83°C, pH 8.3, Mg2+, strictly anaerobic; value previously reported by same laboratory (ref 17), run in parallel; read-out: KRuBP ^a /; cited from earlier work. Type of data set: biochemical.

The target in data set [2] is T2, A. fulgidus RbcL2 (Archaeoglobus fulgidus, UniProt O28635, M295D).
T2 construct: gene rbcL; recombinant in E. coli BL-21(DE3) from pET11a, untagged, purified anaerobically to homogeneity; homodimer
T2 sequence (O28635 whole entry M295D): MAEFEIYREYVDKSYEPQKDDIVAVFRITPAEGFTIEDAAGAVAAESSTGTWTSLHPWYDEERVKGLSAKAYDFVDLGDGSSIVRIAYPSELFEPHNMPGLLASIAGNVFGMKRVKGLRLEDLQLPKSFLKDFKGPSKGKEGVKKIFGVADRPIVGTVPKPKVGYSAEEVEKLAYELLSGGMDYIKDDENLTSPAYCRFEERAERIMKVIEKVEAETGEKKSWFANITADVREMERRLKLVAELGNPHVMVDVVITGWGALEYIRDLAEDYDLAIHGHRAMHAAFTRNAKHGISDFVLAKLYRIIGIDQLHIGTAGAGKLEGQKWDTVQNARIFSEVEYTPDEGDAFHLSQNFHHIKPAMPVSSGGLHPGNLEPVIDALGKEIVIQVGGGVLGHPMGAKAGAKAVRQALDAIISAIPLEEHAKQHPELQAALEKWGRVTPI
The data set is described as follows: radiometric […]-bicarbonate carboxylase assay. Type of data set: biochemical. To be noted: 83°C, pH 8.3, Mg2+, strictly anaerobic; value previously reported by same laboratory (ref 17), run in parallel; read-out: KRuBP ^a /; cited from earlier work.

Substrate in data set [3]: O=C(COP(=O)(O)O)[C@H](O)[C@H](O)COP(=O)(O)O
The data set is described as follows: purified protein. Type of data set: biochemical, Thermococcus kodakarensis. The settings on record: 83°C, pH 8.3, Mg2+, strictly anaerobic.

Substrate in data set [4]: O=C(COP(=O)(O)O)[C@H](O)[C@H](O)COP(=O)(O)O
The data set can be described thus: purified protein. The settings on record: 83°C, pH 8.3, Mg2+, strictly anaerobic. Type of data set: biochemical, Archaeoglobus fulgidus.

Turning to `O=C(COP(=O)(O)O)[C@H](O)[C@H](O)COP(=O)(O)O` [RuBP], the Km on A. fulgidus RbcL2 [1] is 20 ± 5 µM; at A. fulgidus RbcL2 [2], 21 ± 3 µM.

B1: T. kodakaraensis RbcL (Thermococcus kodakarensis KOD1) (protein)
chain: MVEKFDTIYDYYVDKGYEPSKKRDIIAVFRVTPAEGYTIEQAAGAVAAESSTGTWTTLYPWYEQERWADLSAKAYDFHDMGDGSWIVRIAYPFHAFEEANLPGLLASIAGNIFGMKRVKGLRLEDLYFPEKLIREFDGPAFGIEGVRKMLEIKDRPIYGVVPKPKVGYSPEEFEKLAYDLLSNGADYMKDDENLTSPWYNRFEERAEIMAKIIDKVENETGEKKTWFANITADLLEMEQRLEVLADLGLKHAMVDVVITGWGALRYIRDLAADYGLAIHGHRAMHAAFTRNPYHGISMFVLAKLYRLIGIDQLHVGTAGAGKLEGGKWDVIQNARILRESHYKPDENDVFHLEQKFYSIKAAFPTSSGGLHPGNIQPVIEALGTDIVLQLGGGTLGHPDGPAAGARAVRQAIDAIMQGIPLDEYAKTHKELARALEKWGHVTPV
notes: recombinant in E. coli BL-21(DE3) from pET11a, untagged, purified anaerobically to homogeneity; reported decamer
Consider B1, for which, in “purified protein [3]”, the Km came out at 14 ± 2 µM; the kcat (usually the number of substrate molecules converted per active site and unit of time at saturation) came to 16.6 s⁻¹.

B2: A. fulgidus RbcL2 (Archaeoglobus fulgidus DSM 4304; S363I) (protein)
chain: T1 sequence (O28635 1-441) with S363I
notes: recombinant in E. coli BL-21(DE3) from pET11a, untagged, purified anaerobically to homogeneity; homodimer
On to B2, for which, in “purified protein [4]”, the Km amounted to 570 ± 94 µM and the kcat was determined as 9.5 s⁻¹.

B3: A. fulgidus RbcL2 (Archaeoglobus fulgidus DSM 4304; S363V) (protein)
chain: T1 sequence (O28635 1-441) with S363V
notes: as for B2
As for B3, in “purified protein [4]” (kcat determined at 4–6 x KRuBP), the Km was determined as 118 ± 6 µM and the kcat is 12.4 s⁻¹.

B4: A. fulgidus RbcL2 (Archaeoglobus fulgidus DSM 4304; M295D/S363V) (protein)
chain: T1 sequence (O28635 1-441) with M295D, S363V
notes: as for B2
Consider B4, for which, in “purified protein [4]” (kcat determined at 4–6 x KRuBP), the Km amounted to 1381 ± 88 µM and the kcat was determined as 4.3 s⁻¹.

B5: A. fulgidus RbcL2 (Archaeoglobus fulgidus DSM 4304; M295D/S363I) (protein)
chain: T1 sequence (O28635 1-441) with M295D, S363I
notes: as for B2
Consider B5, for which, in “purified protein [4]” (kcat determined at 4–6 x KRuBP), the Km was 1646 ± 310 µM and the kcat is 0.7 s⁻¹.
